Reference: article PMC12823420 (2024)
Like-named read-outs stand apart in the source and are kept apart here. Where no end group is shown, it is not given here.

What was measured:
UAP56 [1] = molecular target: T1, UAP56 (human, UniProt Q13838 1-428); assay: AMP-PNP
UAP56 [2] = molecular target: T1, UAP56; assay: AMP-PNP; remark: listed apart in the source
UAP56 [3] = molecular target: T1, UAP56; assay: RNA + AMP-PNP
UAP56 [4] = molecular target: T1, UAP56
UAP56 [5] = molecular target: T1, UAP56; assay: RNA + AMP-PNP; remark: listed apart in the source

B1: SARNP UCM-4 peptide, biotinylated (peptide)
chain: SISRKSEDDEKLKKRKERFGIVTS
modifications: also: biotinylated, site not given here
koff (UAP56 [1]): 0.83 s⁻¹ | Kd (UAP56 [2]): 11 µM | Kd (UAP56 [3]): 12 µM | koff (UAP56 [4]): 1.39 s⁻¹ | koff (UAP56 [5]): 1.68 s⁻¹

B2: SARNP UCM-1 peptide, biotinylated (peptide)
chain: VDVAAEKKVVKITSEIPQTERMQKRAERFNVPVS
modifications: also: biotinylated, site not given here
Kd (UAP56 [2]): 12 µM | Kd (UAP56 [3]): 13 µM | koff (UAP56 [4]): 3.44 s⁻¹ | koff (UAP56 [5]): 2.67 s⁻¹
